Reference: patent US10246503B2, “Method of improving the pharmacokinetic profile of a therapeutic polypeptide and the use thereof” (BEIJING ANXINHUAIDE BIOTECH. CO., LTD, priority 2012, dated 2019)
Read-outs that look alike come from different tables or passages of the source.

Key:
[1] = target: TNF-alpha; assay: cell-based or functional assay
[2] = in monkeys, literature [6]; cited from earlier work
[3] = pharmacokinetics in Sprague-Dawley rats, sandwich ELISA (Example 6); assay type: in vivo; conditions: Sprague-Dawley rat, intraperitoneal, 0.66/0.72/0.75/0.78 mg/kg respectively
Method: To evaluate the pharmacokinetics profiles for the GLP-1 containing fusion proteins generated using the method of the invention, we purified GLP-1(A8G/G22E/R36S)-Fn8-COL18NC1, GLP-1(A8G/G22E/R36S)-Fn8-COL18NC1-20, GLP-1(A8G/G22E/R36S)-Fn8-COL18NC1-30, GLP-1(A8G/G22E/R36S)-Fn8-COL18NC1-54 in PBS buffer, pH 7.2. These fusion proteins were administered on Sprague-Dawley (SD) rats by intraperitoneal injections at the doses of 0.66 mg/kg, 0.72 mg/kg, 0.75 mg/kg, 0.78 mg/kg animal respectively. Blood samples were taken at various time points after injections such as 0-min, 30-min, 1-hour, 2-hour, 4-hour, 8-hour, 24-hour, 48-hour, 3-day, 4-day, 5-day. 7-day, 10-day. The serum samples were centrifuged and kept at −80° C. freezer.
(§1) The GLP-1 concentrations within the serum samples were examined by use of the sandwich ELISA method. The rabbit polyclonal antibody against human Fibronectin at the concentration of 3 ug/ml (Ab299, Abcam company) was coated on ELISA plate for 1 hour at room temperature. Then the plate was washed by PBST buffer three times and the wells were blocked by PBS with 10% FBS for 1 hour at room temperature. The plate was washed three times before the serum samples containing GLP-1 fusion proteins were added. The serum samples could be diluted to 20-10000 folds before use. The ELISA plate was incubated with the serum samples at room temperature for 1 hour and then washed by PBST buffer five times. Then mouse monoclonal against human GLP-1 peptide antibody (sc57510, Santa Cruz Biotechology) at the concentration of 1 ug/ml in PBST buffer was added to the wells. The plate was washed extensively after incubation of 1 hour at room temperature. The secondary antibody, […] HRP conjugated antibody (Beijing ZSGB-Bio company, ZB 5301), was added into the wells and the color was developed using TMB (3,3′,5,5′-tetramethylbenzidine, BD Biosciences, Cat 555214). The plate reader (Bio-Rad microplate reader Model 680) was utilized to obtain the OD450 readings. This method has been calibrated using purified proteins first.
The pharmacokinetics parameters were obtained by using the WinNonlin software (Table 3).

[4] = target: human GLP-1 receptor (GLP-1R) (human, UniProt P43220 24-463); assay: cell-based or functional assay
[5] = analytical gel filtration (Superdex200), apparent molecular weight; assay type: physicochemical
Source text: In the fusion protein of GLP-1(A8G/G22E)-Fn8-COL18NC1 described in example 4, the flexible unstructured linker between Fn8 and COL18NC1 contains six residues (GGGSGG; SEQ ID NO:89). To generate the flexible un-structured linkers with different lengths, we have synthesized the genes GLP-1(A8G/G22E/R36S)-Fn8-COL18NC1-20, GLP-1(A8G/G22E/R36S)-Fn8-COL18NC1-30, GLP-1(A8G/G22E/R36S)-Fn8-COL18NC1-54 and GLP-1(A8G/G22E/R36S)-Fn8-COL18NC1-60. In these genes, the length of the flexible unstructured polypeptide linker between Fn8 and COL18NC1 contained 20, 30, 54 and 60 residues, respectively. The protein sequences of GLP-1(A8G/G22E/R36S)-Fn8-COL18NC1-20, GLP-1(A8G/G22E/R36S)-Fn8-COL18NC1-30, GLP-1(A8G/G22E/R36S)-Fn8-COL18NC1-54 and GLP-1(A8G/G22E/R36S)-Fn8-COL18NC1-60 are listed as SEQ ID NO:8-11. The synthetic genes of GLP-1(A8G/G22E/R36S)-Fn8-COL18NC1-20, GLP-1(A8G/G22E/R36S)-Fn8-COL18NC1-30, GLP-1(A8G/G22E/R36S)-Fn8-COL18NC1-54 and GLP-1(A8G/G22E/R36S)-Fn8-COL18NC1-60 were grafted to the pET29b by NdeI and XhoI for protein expressions. The expression and purification of these fusion proteins were carried out using similar protocols described in example 3. To estimate the hydrodynamic radius and/or the Rg of the fusion proteins, the purified proteins were loaded on an analytical gel filtration column Superdex200 (GE Healthcare).
Moreover, the flexible unstructured linker between the therapeutic polypeptide and the scaffold protein may adjust the hydrodynamic radius and/or the Rg of the fusion molecule in a tunable manner.
The apparent molecular weights of the fusion proteins were estimated by use of an analytical gel filtration column Superdex-200 (GE Healthcare) mounted on the AKTA FPLC system (GE Healthcare). The purified fusion proteins GLP-1-Fn8, GLP-1-Fn8-COL18NC1, GLP-1(A8G/G22E/R36G)-Fn8-p246-COL18NC1 were loaded on the Superdex200 column. GLP-1-Fn8 is a fusion protein of GLP-1 and Fn8 and contains the first 144 amino acid residues of the fusion protein GLP-1-Fn8-COL18NC1 (SEQ ID NO:2). […] The genuine molecular weights for the fusion proteins GLP-1-Fn8 monomer, GLP-1-Fn8-COL18NC1 trimer, and GLP-1(A8G/G22E/R36G)-Fn8-p246-COL18NC1 trimer were ˜15 Kd, 65 Kd and 123Kd, respectively.

[6] = pharmacokinetics in SD rats, sandwich ELISA (Example 15); assay type: in vivo, SD (Sprague-Dawley) rats; conditions: SD rats, intraperitoneal, 5 nmol/kg
Method: To evaluate the pharmacokinetics profiles for the GLP-1 containing fusion proteins generated using the method of the invention, we purified the recombinant fusion proteins of GLP-1-Fn8-COL18NC1, GLP1(A8G/G22E/R36G)-Fn8-p246-COL18NC1 and GLP1(A8G/G22E/R36G)-Fn8-p285-COL18NC1 in PBS buffer, pH 7.2. These fusion proteins were administered into SD (Sprague-Dawley) rats by intraperitoneal injections at the dose of 5 nmol/kg for animals, respectively. Blood samples were taken at various time points after injections such as 0-min, 30-min, 1-hour, 2-hour, 4-hour, 6-hour, 8-hour, 24-hour, 48-hour, 3-day, 4-day, 5-day, 6-day and 7-day. The serum samples were centrifuged and kept at −80° C. freezer.
as §1, with “within the samples were” for “within the serum samples were”, “Santa Cruz Biotechnology) at the” for “Santa Cruz Biotechology) at the”
The pharmacokinetics parameters were obtained by using the WinNonlin software (Table 5).

Molecule | EC50 (nM) measured by cAMP assay [4] [nM] | AUC(0-t) [3] [ng·h/mL] | AUCinf [3] [ng·h/mL] | CL [3] [mL/min/kg] | Cmax [3] [ng/mL] | T½ [3] [h] | V [3] [L/kg] | apparent molecular weight [5] | also measured
TNFR2-Fc fusion protein (R&D Systems) |  |  |  |  |  |  |  |  | ED50, block of the apoptosis of L-929 mouse fibroblast cells induced by TNF-alpha (0.25 ng/mL) in the presence of actinomycin D [1]: 5 ng/mL
GLP-1-Fc fusion protein: GLP-1-Fc fusion protein of literature reference [6] (LY2189265) |  |  |  |  |  |  |  |  | half life [2]: ~51 h
GLP-1(A8G/G22E/R36S)-Fn8-COL18NC1-54 (ligand) HGEGTFTSDVSSYLEEQAAKEFIAWLVKGSGGGGSGGAVPPPTDLRFTNIGPDTMRVTWAPPPSIDLTNFLVRYSPVKNEEDVAELSISPSDNAVVLTNLLPGTEYVVSVSSVYEQHESTPLRGRQKTGGGGGSGGGGSTASSASTGGPSGGGGSGGGGSAPSSGSTSGGTAAGGGGSGGGGSGASSGVRLWATRQAMLGQVHEVPEGWLIFVAEQEELYVRVQNGFRKVQLEARTPLPRG | 0.5 | 86640 | 86670 | 0.451 | 2640 | 9.10 | 0.35086 | ~200 Kd | 
GLP-1(A8G/G22E/R36S)-Fn8-COL18NC1-30 (ligand) HGEGTFTSDVSSYLEEQAAKEFIAWLVKGSGGGGSGGAVPPPTDLRFTNIGPDTMRVTWAPPPSIDLTNFLVRYSPVKNEEDVAELSISPSDNAVVLTNLLPGTEYVVSVSSVYEQHESTPLRGRQKTGGGGGSGGGGSASSASTGGPSGGGGSGGGGSGASSGVRLWATRQAMLGQVHEVPEGWLIFVAEQEELYVRVQNGFRKVQLEARTPLPRG | 1.3 | 47580 | 47600 | 0.7673 | 2150 | 7.22 | 0.47981 | larger apparent molecular weight than their genuine molecular weight | 
GLP-1-Fn8-COL18NC1: fusion of GLP-1, Fn8 and COL18NC1; SEQ ID NO: 2; abbreviated NC1 in Table 5 (protein) HAEGTFTSDVSSYLEGQAAKEFIAWLVKGRGGGGSGGGGSAVPPPTDLRFTNIGPDTMRVTWAPPPSIDLTNFLVRYSPVKNEEDVAELSISPSDNAVVLTNLLPGTEYVVSVSSVYEQHESTPLRGRQKTGGGGSGGGASSGVRLWATRQAMLGQVHEVPEGWLIFVAEQEELYVRVQNGFRKVQLEARTPLPRG |  |  |  |  |  |  |  | ~100 Kd | half life [6]: 5.3 h
GLP-1-Fn8: fusion protein of GLP-1 and Fn8, first 144 residues of SEQ ID NO:2; monomer in solution (protein) HAEGTFTSDVSSYLEGQAAKEFIAWLVKGRGGGGSGGGGSAVPPPTDLRFTNIGPDTMRVTWAPPPSIDLTNFLVRYSPVKNEEDVAELSISPSDNAVVLTNLLPGTEYVVSVSSVYEQHESTPLRGRQKTGGGGSGGGASSGV |  |  |  |  |  |  |  | ~20 Kd | 

Now from value to molecule, other results behind:

EC50 (nM) measured by cAMP assay [4] [nM] | Molecule | AUC(0-t) [3] [ng·h/mL] | AUCinf [3] [ng·h/mL] | CL [3] [mL/min/kg] | Cmax [3] [ng/mL] | T½ [3] [h] | V [3] [L/kg] | apparent molecular weight [5] | also measured
0.5 | GLP-1(A8G/G22E/R36S)-Fn8-COL18NC1-60 (ligand) HGEGTFTSDVSSYLEEQAAKEFIAWLVKGSGGGGSGGAVPPPTDLRFTNIGPDTMRVTWAPPPSIDLTNFLVRYSPVKNEEDVAELSISPSDNAVVLTNLLPGTEYVVSVSSVYEQHESTPLRGRQKTGGGGSGGGSGGGSTASSASTKGPSGGGSGGGSGGGSAPSSKSTSGGTAAGGGSGGGSGGGSGASSGVRLWATRQAMLGQVHEVPEGWLIFVAEQEELYVRVQNGFRKVQLEARTPLPRG |  |  |  |  |  |  | ~200 Kd | 
1.3 | GLP-1(A8G/G22E/R36S)-Fn8-COL18NC1 (ligand) HGEGTFTSDVSSYLEEQAAKEFIAWLVKGSGGGGSGGGGSAVPPPTDLRFTNIGPDTMRVTWAPPPSIDLTNFLVRYSPVKNEEDVAELSISPSDNAVVLTNLLPGTEYVVSVSSVYEQHESTPLRGRQKTGGGGSGGGASSGVRLWATRQAMLGQVHEVPEGWLIFVAEQEELYVRVQNGFRKVQLEARTPLPRG |  |  |  |  |  |  | ~100 Kd | 
1.4 | GLP-1(A8G/G22E/R36S)-Fn8-COL18NC1-20 (ligand) HGEGTFTSDVSSYLEEQAAKEFIAWLVKGSGGGGSGGAVPPPTDLRFTNIGPDTMRVTWAPPPSIDLTNFLVRYSPVKNEEDVAELSISPSDNAVVLTNLLPGTEYVVSVSSVYEQHESTPLRGRQKTGGGGGSGGGGSGGGGSGGGGSGASSGVRLWATRQAMLGQVHEVPEGWLIFVAEQEELYVRVQNGFRKVQLEARTPLPRG | 36210 | 37240 | 0.9505 | 2260 | 6.45 | 0.53016 | larger apparent molecular weight than their genuine molecular weight | 
